A protein production outcome set (Wang et al. 2014)

Assay: label from the status in PepcDB records
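Further: failed if final PepcDB status was selected cloned or expressed and not failed if soluble or beyond.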

Row | Sequence | protein production
1 | MEIFFTILIMTLVVSLSGVVTRVMPFQIPLPLMQIAIGALLAWPTFGLHVEFDPELFLVLFIPPLLFADGWKTPTREFLEHGREIFGLALALVVVTVVGIGFLIYWVVPGIPLIPAFALAAVLSPTDAVALSGIVGEGRIPKKIMGILQGEALMNDASGLVSLKFAVAVAMGTMIFTVGGATVEFMKVAIGGILAGFVVSWLYGRSLRFLSRWGGDEPATQIVLLFLLPFASYLIAEHIGVSGILAAVAAGMTITRSGVMRRAPLAMRLRANSTWAMLEFVFNGMVFLLLGLQLPGILETSLMAAEIDPNVEIWMLFTNIILIYAALMLVRFGWLWTMKKFSNRFLKKKPMEFGSWTTREILIASFAGVRGAITLAGVLSIPLLLPDGNVFPARYELVFLAAGVILFSLFVGVVMLPILLQHIEVADHSQQLKEERIARAATAEVAIVAIQKMEERLAADTEENIDNQLLTEVSSRVIGNLRRRADGRNDVESSVQEENLERRFRLAALRSERAELYHLRATREISNETLQKLLHDLDLLEALLIEENQ | failed
2 | EPAPRGFLLIGANRVAREIGQALARYDRRVLMTDSNWEYISQVRMMGLDYYYGNPISSHADDNLNMIGIGQVVALTPDQHFNIMACMQF | failed
3 | SEPGEELEEEGSPGGREDGFTAEHLAAEAMAADMDPWLVFDARTTPATELDAWLAKYPPSQVTRYGDPGSPNSEPVGWIAVYGQGYSPNSGDVQGLQAAWEALQTSGRPITPGTLRQLAITHHVLSGKWLMHLAPGFKLDHAWAGIARAVVEGRLQVAKVSPRAKEGGRQVICVYTDDFTDRLGVLEADSAIRAAGIKCLLTYKPDVYTYLGIYRANRWHLCPTLYESRFQLGGSARGSRVLDRANNVELT | not failed
4 | MALTDNTRGALFMALAMASFTANDALTKSVTPYINTGQIMFVRGVMTVVLIYIAARHFGALRPLKTLLRPIIILRCLCEVTAAVLYLTALGLIEFSNASAILQSLPLVVTLGAALFLREPVGWRRWVAIIVGFIGVLVIIRPGPEGFTPGALLVVASLAVTAARDLLTRKMYADVPSLAITVITAFVNMAVGGLLIVPFGGWQPMNFTIVSHLAGSAILVLVGYQAIILSMRTGEISFVAPFRYTGLLWGFMIGVFFFNEKIDSYTIIGAMIVIGSGLYTFYRESLRKRSQMAKRAAATPTAATTVRPASVTKATVTEEAGE | failed
5 | MKRRAGLGGSMRSVVGFLSQRGLHGDPLLTQDFQRRRLRGCRNLYKKDLLGHFGCVNAIEFSNNGGQWLVSGGDDRRVLLWHMEQAIHSRVKPIQLKGEHHSNIFCLAFNSGNTKVFSGGNDEQVILHDVESSETLDVFAHEDAVYGLSVSPVNDNIFASSSDDGRVLIWDIRESPHGEPFCLANYPSAFHSVMFNPVEPRLLATANSKEGVGLWDIRKPQSSLLRYGGNLSLQSAMSVRFNSNGTQLLALRRRLPPVLYDIHSRLPVFQFDNQGYFNSCTMKSCCFAGDRDQHHNWKWRAQAVSFQPFLSLTRNGDADVDLKLAV | failed
6 | MEKQKEVQKEYEEYQYMLDTETWKKELSQFKLSSSEKISKNPKVSIIIANYNNAPYLKKMMDSLVQQTIGIEQLQVMFIDDCSTDHSLKVIEPYLERYPNIEIYQLLENTGGAHGPRNVGIVNARGEYSVFLDADDWYDLNALKYLSDLLDDSHDDFAVSGLIQSTDGHLMLKSKPYYVDGSFKNRSIQELPAEFYGWLGPQAIMLRTSLIHNNNLHFVNQRVADDVLFFYEAMRFSKTITQGERLTTYLNRDADNESLSKSINRTFMLSWLRALSYINQQFPDDLSKERMLARRLEWLIYDFCIRRNTGYPFSKRRLQDFKVQMDQYLGELNFDPSPYFRSDVRQIIWTFLQTNDIDGLYWFIQCQSIRWVLVNRFGYVSKTERSYYYPRLLKRFPAVRMNAYAEATQREGNTLSLNVYTHQKITGFEIKELKNPFETRQRLAFKKISETSYQVELPEKFSNKESRFTIVFDNYLEIGVKDFSKFFALEHHHHHH | failed
7 | MVSVTFEPVGKKVEDEPDTILEIARRNGVLIRSDCGGKGVCGKCKVVVVDYRGSLSDITDHERKHLIEEEISKGYRLACQARVEEGRATIFIPPESRLERRKVAGLTIEKEVELNPAVRKVYAEIQPPSIEDQLPDYDRLTRALGDFSLDLETLSEMPKLLREAEWRVTATFWNGRLIDLEKGDVSDRCYGVAVDVGSSKIICHLVDLKSGETIATGYSDNPQVAYGEDIVSRITYASKSAENRKRLQTVVVETVNQIIAELCNESGVDLRHVYEVMIVGNSVMHHLFFGIEPRFIGVSPFTPAVRRGVSFPAEDVGLRINRKGYVSSLPLVAGFVGADAVANIAITGIHKAEEISMVIDIGTNTEIVIGNREKLGVCSAPSGPAFEGAHITFGMKAISGAIDSVRIERDEVIYTTIDNAKAKGLCGTGLIDLIAELYRNGIINRNGKFVKDHSRIIVDGVPKFVVAKAEETEFGKPITVSEKDINELLMAKGAIKSGWMILSERLGIEPDKIERIYLAGSFGRHINVENAKVIGLLPDIPSEKITFAGDTAVGGAKMALKSVRVRDEMEDVVSRLNYVELSVEKNFYSVFVRAIPI | not failed
8 | MASSKELCSIREWAPLTEVIERIPARLQRGFFPANLNLTCVDATEEFLAMGSDAGIVFWYNRHTGEMQKLKAEVATRITCVRVVNSVEYMVAAGCANGQVSIFQIQKELPRDLDLVAPCTKSRPIERYTIRDLHKCVVSCCEWSKNGMKLYSGDRQGVVVLTELDYQAHLSKSVEILSEAYEIVQLSVRQSYLLVATLYRCIVCQMDAQTSQWNITQVGKKDRKQLIDCGAIFLKKQEANKPQLVCGRPGLRFWVADAAGNVSKTVIFRDAVLRSPTWEIPILNPKQRSEPSGTHHTSASTSSTRHSGLADGDVGYVASSNFRQLYLYDGHDSLLVTHDDATLYVLNLDRLKVEAVARGLRKILDFCVCGKEIFVLEGNRTLLRLAPLPEPPNKTAKVIFNPLMPPPVPVLGSHLSQLESPIELQAEPVLQNAEECFELSPVEQLNLNVPIEIAVESPLTQQNRRLEIFRRIGEMDFEQSIVHTTRKTSVGKPPEASGVGIVEIGHETHELRLPLTNAATLMEASYCQMENNGLASPLDMKAAFLQHLPDALSPTTLQKTVAEKAKTLAAELDLPEVHLAPLSQEELHAVQAQTPQISDPLIRCYPTHLEEASIQTSSRENATNPADDYHVGEPVDGIRSFGVSKRKMAPLKFVLSQPKPTLKLEENRDDEEYTSFLPDFRRAGDPLAIHKETPATSDSNTSSEWEFLDN | failed
9 | GKVSIPSIVYDIVRKNGGNKILLVGNGMLASEIAPYFSYPQYKVTVAGRNIDHVRAFAEKYEYEYVLINDIDSLIKNNDVIITATSSKTPIVEERSLMPGKLFIDLGNPPNIERGNNVITLDEIYEISKKNEMLREEKINQ | not failed
10 | MKTSVIISTYTKERYKDVLRCIESVRHQSLKPYEILLILDPVKSLVEYYKNIVPKDVRVVVSDGFGLSKARNKGVFEAKGDIIAFIDDDAWADDLWLEKIVENYSDEGVYGVGGKIIPVFENGRPKWLPEELDWIVGCTYKGMPEQRTNIRNPIGANMSFRREAFEIAGPFRSEIGRYGKKLLSGEEAEFAMRLRKIKPDAKIIYEPSAVVYHKVPKSRVRISYAVKRAFYEGYSKAILAKEFPLEMESKYLNFILRSILRKLLSKGQQIEALVMSVIVMTVGIGNLYGTCRILLRK | failed
11 | MSLKAIGFEQPFKLSDGNLFKTFNLDIPEPKVHEILVKIQSISVNPVDTKQRLMDVSKAPRVLGFDAIGVVESVGNEVTMFNQGDIVYYSGSPDQNGSNAEYQLINERLVAKAPKNISAEQAVSLPLTGITAYETLFDVFGISRNRNENEGKTLLIINGAGGVGSIATQIAKAYGLRVITTASRNETIEWTKKMGADIVLNHKESLLNQFKTQGIELVDYVFCTFNTDMYYDDMIQLVKPRGHIATIVAFENDQDLNALKPKSLSFSHEFMFARPLNQTDDMIKHHEYLEDITNKVEQNIYQPTTTKVIEGLTTENIYQAHQILESNTMIGKLVINLNEGHHHHHH | not failed
12 | MAQIVTSTKSCTVNPLRMSQPLGAALAFMGLRNCMPLLHGSQGCTSFGLVLFVRHFRESIPLQTTAMSEVATVLGGFENVEQAIVNIVGRTKPDVIGICTTGVTEIKGDDLDGYIKMVRANHPELANVALVPVSTPDFKGAFEDGFAATVTRIVETLVETPAEGAAPDADRINVLAGSHLTPGDIDELRDIIEAFGLVPTFLPDISGSLDGHVPDDFTPTTHGGVSVAEVVAMGGAGHTLAFGEHMRKAAAALEAKAGVPFTLLSRVTGLAAADELMATLAKISGRPVPPKYRRQRSQLVDAMLDGHFYFGGKSVAIGAEPDMLLNIGGWLADMGCTVSAAVTTTTSPSLAQVPSDEVLIGDLEDLERRAEDCDLLVTHSHGRQAAERLSVPLFRMGLPMFDRLGAVHQVAVGYRGTRDLIFAIGNLFIANIKEPDVNSWRSASACPDQTDAPAKAH | failed
13 | MKSVNYRLLFSKSIFLGIFFLNIVFAQAQNEKKYIKEGDAAAASGDSKTALNQYLQAYKLNQTNASLNYKIGVQYLKSEYPHKCLSYFESAYKLDPKVDKDILFNLGVAYQENHRFDEAADYFTKYRATLDPSNPFLKKIDRRLYECANGKEFMEKPVDVKIQSVSSVVNSPYSDFAPVISADEKVMIFTSRRPGSTGGSFDENGQYYEDIYISKKIAGQWGAPQNIGSNINTEFHDASIALSADGSELFIYKDDNAGDIYYCKQRADGSWSKPLPIEGSVNSRTYRENAAAVSPDGNTLFFASNREGGYGKLDLYMVKMNDKGFWGKPINLGPTINTEVDDESPFMDFDGMTLYFSSRAHKGMGGLDIFKTYYDSTKGDWTEPINMGYPINSADDDINFVLSGDGGHGYYASAKDDGVGEKDIYMISMPPREDRTKLIEKMKAMHLDAPIADVVPAPTVAAVLLPITIKGVVKDAETGKPMQTVVQLTDENGKLIAEKNVGPDGLYSFTVKNEAATSYTLSTEKEEFGFINKTFSVPGEKTSSQEITQNLALKKLAVGNVYVLRNIYFDFDKATLKSASNKELNNLLQLLKQNPEMEIEISGHTDSKGSDEYNRVLSRKRAQAVVNWLVSKGISKNRLKFEGYGESRPLASNDDELEGRELNRRTEFKILKK | failed
14 | MNDGRMLGLFTFIIMIISIISQIIALSASQRNIYLGIRIPQEEINNTKIKAIGKRYIWSNLLLGIPIAALLSYCVYKINNDILYLAAIILFMAISFLLYYYYNRKILKIKKEEGWLKTKKQEIVIDTSFAKRKSERMVAGSRWFLLSLIFIVICLIVNVKQYPNIPYRYPTHWDINGRPNAYSLKSYMTIFSMPINQLILIAVMFFSYKITFWSKNELDGRNPKDSGERNIKFRNVWAIYAIVVNFFLQIIFLIQDFQIMHIVNTNPKFIIIAVITMTIVVICSSLIISIKVGQGGSRLKTRGNKSEFGINMRDDDKYWRLGNLFYCNKNDPSIFVQKRFGIGWTVNVGNKFGVLFYVLIIVFLIICIAISR | failed
15 | MELKMNDINQHSFLKLGSVRHIQSEQEALEIAKEMANQLNQFARNPSYNKTVPYDQARLISEAGLTAIIVPKQFGGLGASISTLVNVVKIISSADGGVGQLLQIHFTMFRGILTGYDDEIRDQLLADVLSGKRLGNALAEVGGKDKFQHKTRVERNSEGKLILNGSKFYSTGSLLAEWISLFAGSDDGPVSILIHRDTQGVELLNDWDAMGQNNSVSGTVNFKDVVVDERYVAKRNTGGLGTVLRTGLTWPQILHAAMDTGIAKGALQGGIDYLQHHARPWVESGVDSPTHESHIIKQIGEFAVLVRSAEALLDRSAQIFEQHLANVEDEDLQTELILSVAATRSQSDHASLKISSEIFGLLGASSTLSKWNLDRFWRNARTHTTHDPIRWRLYHVGNYYLNNIPPGEYNSVLLKKQAENVTKFSK | failed
